“And” between values parts separate entries of the source, which are not always exact repeats. Equal entries are not always repeated. Where two headings read alike, the source gives them in different places.
Tests used:
Glucose = Glucose after subcutaneous (SC) administration of insulin; assay type: in vivo, rat
[1] = Estimates of bioavailability (absolute, portal, relative to subcutaneous)
Excerpt: (§1) This value was assumed to be constant in the estimates of absolute bioavailability.
(§2) The portal bioavailability provides an estimate of drug absorption from oral delivery. […] This value is used to estimate bioavailability relative to subcutaneous.

[2] = Insulin and 4-CNAB stability in simulated gastric fluid (HPLC); details: 37° C.
Procedure: The SGF was prepared with and without pepsin, a gastric enzyme. SGF pH 1.2 was prepared as per the USP NF 26 guidelines. 2 g sodium chloride and 3.2 g of pepsin were weighed and added to a suitable container, and deionized water was added to reach one liter in volume. If necessary, the pH was adjusted to 1.2 by addition of concentrated HCl or NaOH. A second SGF solution omitting the pepsin was also prepared.
Four 50 ml samples of SGF (two with pepsin and two without) were placed into a jacketed vessel connected to a circulating water bath set at 37° C. The solutions were stirred with magnetic stir bars for ten minutes to allow the solutions to reach 37° C. and reach thermal equilibrium.
The term “% of theoretical” as used herein, means the percent of the concentration (mg/mL) of withdrawn solution at the time-point the sample was taken as compared to the theoretical concentration (mg/mL) of the measuring component for experiment. The standard of deviation for the HPLC analysis is ±5%.

[3] = Excerpt: as §1, §2
[4] = Stability of insulin in simulated intestinal fluid (HPLC); details: for stability of insulin / Insulin % of theoretical: 37° C.
Procedure: The SIF solutions were prepared with and without pancreatic enzyme. SIF pH 7.5 was prepared as per the USP NF 26 guidelines. SIF was prepared by addition of 6.8 g monobasic potassium phosphate and 10 g of pancreatin into a suitable vessel, and deionized water was added to reach a total volume of one liter. If necessary, the pH was adjusted to 7.5 by addition of 0.2 N sodium hydroxide. A second SIF solution omitting the pancreatin, an intestinal enzyme, was also prepared.
Four 50 ml samples of SIF (two with pancreatin and two without) were placed into a jacketed vessel connected to a circulating water bath set at 37° C. The solutions were stirred with magnetic stir bars for ten minutes to allow the solutions to reach 37° C. and reach thermal equilibrium.

Substance: Insulin: Recombinant human zinc insulin
- Glucose (Glucose; study 3, 0.05 mg/kg, time 0): 83 mg/dL
- Glucose (Glucose; study 3, 0.05 mg/kg, time 15): 66 mg/dL
- Glucose (Glucose; study 3, 0.05 mg/kg, time 30): 60 mg/dL
- Glucose (Glucose; study 3, 0.05 mg/kg, time 45): 61 mg/dL
- Glucose (Glucose; study 3, 0.05 mg/kg, time 60): 73 mg/dL
- Glucose (Glucose; study 3, 0.05 mg/kg, time 120): 98 mg/dL
- Glucose (Glucose; study 3, 0.05 mg/kg, time 180): 105 mg/dL
- Glucose (Glucose; study 4, 0.05 mg/kg, time 0): 73 mg/dL
- Glucose (Glucose; study 4, 0.05 mg/kg, time 15): 66 mg/dL
- Glucose (Glucose; study 4, 0.05 mg/kg, time 30): 59 mg/dL
- Glucose (Glucose; study 4, 0.05 mg/kg, time 45): 64 mg/dL
- Glucose (Glucose; study 4, 0.05 mg/kg, time 60): 72 mg/dL
- Glucose (Glucose; study 4, 0.05 mg/kg, time 90): 88 mg/dL
- Glucose (Glucose; study 4, 0.05 mg/kg, time 120): 110 mg/dL
- Glucose (Glucose; study 5, 0.05 mg/kg, time 0): 60 mg/dL
- Glucose (Glucose; study 5, 0.05 mg/kg, time 15): 42 mg/dL
- Glucose (Glucose; study 5, 0.05 mg/kg, time 30): 38 mg/dL
- Glucose (Glucose; study 5, 0.05 mg/kg, time 45): 42 mg/dL
- Glucose (Glucose; study 5, 0.05 mg/kg, time 60): 48 mg/dL
- Glucose (Glucose; study 5, 0.05 mg/kg, time 90): 52 mg/dL
- Glucose (Glucose; study 5, 0.05 mg/kg, time 120): 66 mg/dL
- Glucose (Glucose; study 6, 0.05 mg/kg, time 0): 68 mg/dL
- Glucose (Glucose; study 6, 0.05 mg/kg, time 15): 40 mg/dL
- Glucose (Glucose; study 6, 0.05 mg/kg, time 30): 39 mg/dL
- Glucose (Glucose; study 6, 0.05 mg/kg, time 45): 36 mg/dL
- Glucose (Glucose; study 6, 0.05 mg/kg, time 60): 32 mg/dL
- Glucose (Glucose; study 6, 0.05 mg/kg, time 90): 35 mg/dL
- Glucose (Glucose; study 6, 0.05 mg/kg, time 120): 39 mg/dL
- Glucose (Glucose; study 7, 0.05 mg/kg, time 0): 65 mg/dL
- Glucose (Glucose; study 7, 0.05 mg/kg, time 15): 45 mg/dL
- Glucose (Glucose; study 7, 0.05 mg/kg, time 30): 39 mg/dL
- Glucose (Glucose; study 7, 0.05 mg/kg, time 45): 40 mg/dL
- Glucose (Glucose; study 7, 0.05 mg/kg, time 60): 42 mg/dL
- Glucose (Glucose; study 7, 0.05 mg/kg, time 90): 42 mg/dL
- Glucose (Glucose; study 7, 0.05 mg/kg, time 120): 50 mg/dL
- Glucose (Glucose; study 8, 0.05 mg/kg, time 0): 70 mg/dL
- Glucose (Glucose; study 8, 0.05 mg/kg, time 15): 59 mg/dL
- Glucose (Glucose; study 8, 0.05 mg/kg, time 30): 64 mg/dL
- Glucose (Glucose; study 8, 0.05 mg/kg, time 45): 69 mg/dL
- Glucose (Glucose; study 8, 0.05 mg/kg, time 60): 73 mg/dL
- Glucose (Glucose; study 8, 0.05 mg/kg, time 90): 89 mg/dL
- Glucose (Glucose; study 8, 0.05 mg/kg, time 120): 106 mg/dL
- BA ([1]; SC (subcutaneous) dosing): 55.67%
- absolute bioavailability ([1]; SC administration, rat model): approximately 56%
- maximum absolute bioavailability of insulin ([1]; from oral delivery or any other 100% GI absorption into the portal vein, from intraportal results, rat model): approximately 60%
- insulin degraded ([2]; SGF containing pepsin, first sampling point): 97%
- insulin remained ([2]; SGF containing pepsin, first sampling point (0 minutes)): 3.0%
- Insulin % of theoretical ([2]; SGF no enzymes, with 4-CNAB, 30 minutes): 105.7%
- Insulin % of theoretical ([2]; SGF no enzymes, with 4-CNAB, 24 h): 0%
- Insulin % of theoretical ([2]; SGF with pepsin, with 4-CNAB, 0 minutes): 3.0%
- Insulin % of theoretical ([2]; SGF with pepsin, without 4-CNAB, 0 minutes): 3.0%
- Insulin % of theoretical ([2]; SGF without enzymes, without 4-CNAB, 10 minutes): 100.4%
- Insulin % of theoretical ([2]; SGF without enzymes, without 4-CNAB, 30 minutes): 100.1%
- Insulin % of theoretical ([2]; SGF without enzymes, without 4-CNAB, 1 h): 99.4%
- Insulin % of theoretical ([2]; SGF without enzymes, without 4-CNAB, 24 h): 0%
- time insulin is stable ([2]; SGF without pepsin): ≥ 2 h
- AUC0->T/Dose ([3]; SC (subcutaneous) dosing, average): 0.0052 kg·min/mL
- Avg AUC0->T/Dose ([3]; SC, average of studies 1-8): 0.005159 kg·min/mL
- AUC0->T/Dose ([3]; SC, study 1, […]): 0.005601 kg·min/mL
- AUC0->T/Dose ([3]; SC, study 2, […]): 0.006514 kg·min/mL
- AUC0->T/Dose ([3]; SC, study 3, 0.05 mg/kg): 0.005562 kg·min/mL
- Insulin ([3]; SC, study 3, 0.05 mg/kg, time 0): 1.51 uU/ml
- Insulin ([3]; SC, study 3, 0.05 mg/kg, time 15): 98.85 uU/ml
- Insulin ([3]; SC, study 3, 0.05 mg/kg, time 30): 73.59 uU/ml
- Insulin ([3]; SC, study 3, 0.05 mg/kg, time 45): 61.37 uU/ml
- Insulin ([3]; SC, study 3, 0.05 mg/kg, time 60): 58.20 uU/ml
- Insulin ([3]; SC, study 3, 0.05 mg/kg, time 120): 21.34 uU/ml
- Insulin ([3]; SC, study 3, 0.05 mg/kg, time 180): 8.30 uU/ml
- AUC0->T/Dose ([3]; SC, study 4, 0.05 mg/kg): 0.004929 kg·min/mL
- Insulin ([3]; SC, study 4, 0.05 mg/kg, time 0): 0.37 uU/ml
- Insulin ([3]; SC, study 4, 0.05 mg/kg, time 15): 103.42 uU/ml
- Insulin ([3]; SC, study 4, 0.05 mg/kg, time 30): 81.64 uU/ml
- Insulin ([3]; SC, study 4, 0.05 mg/kg, time 45): 68.91 uU/ml
- Insulin ([3]; SC, study 4, 0.05 mg/kg, time 60): 58.58 uU/ml
- Insulin ([3]; SC, study 4, 0.05 mg/kg, time 90): 32.01 uU/ml
- Insulin ([3]; SC, study 4, 0.05 mg/kg, time 120): 21.15 uU/ml
- AUC0->T/Dose ([3]; SC, study 5, 0.05 mg/kg): 0.001013 kg·min/mL
- Insulin ([3]; SC, study 5, 0.05 mg/kg, time 0): 0 uU/ml
- Insulin ([3]; SC, study 5, 0.05 mg/kg, time 15): 34.90 uU/ml
- Insulin ([3]; SC, study 5, 0.05 mg/kg, time 30): 9.71 uU/ml
- Insulin ([3]; SC, study 5, 0.05 mg/kg, time 45): 16.57 uU/ml
- Insulin ([3]; SC, study 5, 0.05 mg/kg, time 60): 10.46 uU/ml
- Insulin ([3]; SC, study 5, 0.05 mg/kg, time 90): 2.94 uU/ml
- Insulin ([3]; SC, study 5, 0.05 mg/kg, time 120): 5.05 uU/ml
- AUC0->T/Dose ([3]; SC, study 6, 0.05 mg/kg): 0.007644 kg·min/mL
- Insulin ([3]; SC, study 6, 0.05 mg/kg, time 15): 191.67 uU/ml
- Insulin ([3]; SC, study 6, 0.05 mg/kg, time 30): 119.71 uU/ml
- Insulin ([3]; SC, study 6, 0.05 mg/kg, time 45): 121.33 uU/ml
- Insulin ([3]; SC, study 6, 0.05 mg/kg, time 60): 74.65 uU/ml
- Insulin ([3]; SC, study 6, 0.05 mg/kg, time 90): 42.88 uU/ml
- Insulin ([3]; SC, study 6, 0.05 mg/kg, time 120): 25.65 uU/ml
- AUC0->T/Dose ([3]; SC, study 7, 0.05 mg/kg): 0.005932 kg·min/mL
- Tmax ([3]; SC, study 7, 0.05 mg/kg): 30 min
- Insulin ([3]; SC, study 7, 0.05 mg/kg, time 0): 5.85 uU/ml
- Insulin ([3]; SC, study 7, 0.05 mg/kg, time 15): 90.29 uU/ml
- Insulin ([3]; SC, study 7, 0.05 mg/kg, time 30): 125.96 uU/ml
- Insulin ([3]; SC, study 7, 0.05 mg/kg, time 45): 67.83 uU/ml
- Insulin ([3]; SC, study 7, 0.05 mg/kg, time 60): 78.19 uU/ml
- Insulin ([3]; SC, study 7, 0.05 mg/kg, time 90): 45.77 uU/ml
- Insulin ([3]; SC, study 7, 0.05 mg/kg, time 120): 18.24 uU/ml
- AUC0->T/Dose ([3]; SC, study 8, 0.05 mg/kg): 0.004079 kg·min/mL
- Insulin ([3]; SC, study 8, 0.05 mg/kg, time 15): 131.71 uU/ml
- Insulin ([3]; SC, study 8, 0.05 mg/kg, time 30): 70.90 uU/ml
- Insulin ([3]; SC, study 8, 0.05 mg/kg, time 45): 66.28 uU/ml
- Insulin ([3]; SC, study 8, 0.05 mg/kg, time 60): 0.59 uU/ml
- Insulin ([3]; SC, study 8, 0.05 mg/kg, time 90): 33.96 uU/ml
- Insulin ([3]; SC, study 8, 0.05 mg/kg, time 120): 14.64 uU/ml
- FPE (fH) ([3]; individual animals n 1-5): 0.18
- AUC-IP ([3]; intraportal administration, Average): 9.65
- average insulin AUC0→t/Dose ([3]; subcutaneous dosing): 0.00516 kg·min/mL
- AUC-JV ([3]; systemic administration, Average): 15.53
- stability of insulin ([4]; SIF in presence of the enzyme (pancreatin)): degrades
- Insulin % of theoretical ([4]; SIF no enzymes, with 4-CNAB, 0 minutes): 100.2%
- Insulin % of theoretical ([4]; SIF no enzymes, with 4-CNAB, 4 minutes): 106.3%
- Insulin % of theoretical ([4]; SIF no enzymes, with 4-CNAB, 45 minutes): 99.1%
- Insulin % of theoretical ([4]; SIF no enzymes, with 4-CNAB, 24 hours): 105.6%
- Insulin % of theoretical ([4]; SIF with pancreatin, with 4-CNAB, 0 minutes): 58.9%
- Insulin % of theoretical ([4]; SIF with pancreatin, with 4-CNAB, 4 minutes): 19.3%
- Insulin % of theoretical ([4]; SIF with pancreatin, with 4-CNAB, 6 minutes): 5.4%
- Insulin % of theoretical ([4]; SIF without 4-CNAB or enzymes, 0 minutes): 92.9%
- Insulin % of theoretical ([4]; SIF without 4-CNAB or enzymes, 15 minutes): 92.7%
- Insulin % of theoretical ([4]; SIF without 4-CNAB or enzymes, 1 hour): 92.7%
- Insulin % of theoretical ([4]; SIF without 4-CNAB or enzymes, 2 hours): 94.6%
- Insulin % of theoretical ([4]; SIF without 4-CNAB or enzymes, 24 hours): 100.4%
- stability of insulin ([4]; SIF without pancreatin): stable
- insulin remained ([4]; SIF, first sampling time point (0 minutes)): 58.9% and 66.9%

Source: patent US20060078622A1, “Pharmaceutical formulations containing microparticles or nanoparticles of a delivery agent” (priority 2004, published 2006)
